Key:
[1] = biological target: bone morphogenetic protein 2 (BMP2) (human) (UniProt P12643)
[2] = biological target: growth differentiation factor 5 (GDF5), wild type (human) (UniProt P43026)
[3] = biological target: bone morphogenetic protein 2 (BMP2) (human) (UniProt P12643); experiment: SPR; ProteOn XPR36; BMP2 (570 RU), GDF5 (470 RU), TGF-β2 (300 RU) or activin A (350 RU) amine-coupled to a GLC sensor chip; analyte perfused (RGMB 50 to 1.56 nM at 150 or 100 µl/min; BMPR1A 1000 to 31.25 nM at 100 µl/min); 20 mM HEPES pH 7.4, 500 mM NaCl, 3.4 mM EDTA, 0.005% (v/v) Tween 20; 25 °C; Langmuir 1:1 kinetic fit (parameters local for RGMB), Kd = koff/kon; apparent
[4] = biological target: growth differentiation factor 5 (GDF5), wild type (human) (UniProt P43026); experiment: as above
[5] = biological target: GDF5 variant Arg438Ala (human) (UniProt P43026); experiment: SPR; GDF5 wild type (500 RU), Arg438Ala (702 RU) or Arg438Leu (977 RU) amine-coupled to a GLC sensor chip; RGMECD proteins from FreeStyle 293 cells as analytes, six concentrations (log2 series from 40, 30, 20 or 10 nM), 100 µl/min; 20 mM HEPES pH 7.4, 500 mM NaCl, 3.4 mM EDTA, 0.005% (v/v) Tween 20; kon and koff fitted globally, Kd = koff/kon; two independent experiments; apparent
[6] = biological target: GDF5 variant Arg438Leu (human) (UniProt P43026); experiment: as above
[7] = biological target: growth differentiation factor 5 (GDF5), wild type (human) (UniProt P43026); experiment: as above
[8] = biological target: GDF5 variant Tyr487Lys/Gln489Asp (UniProt P43026); experiment: SEC-MALS; RGMBND–GDF5(Tyr487Lys/Gln489Asp)–ActR2bECD complex, 1 mg/mL, Superdex 200 HR 10/30, 0.5 M NaCl, 20 mM Hepes pH 7.4, 21 °C
[9] = biological target: bone morphogenetic protein 2 (BMP2) (human) (UniProt P12643); experiment: SPR; ProteOn XPR36; BMP2 (570 RU) or GDF5 (470 RU) amine-coupled to a GLC sensor chip; ActR2b ectodomain perfused at 6 µM to 187.5 nM, 100 µl/min; 0.005% (v/v) Tween 20 buffer; Kd from the dose-dependency of equilibrium binding, one-site model; apparent

bone morphogenetic protein 2 (BMP2) (human), sequence (P12643 24-396): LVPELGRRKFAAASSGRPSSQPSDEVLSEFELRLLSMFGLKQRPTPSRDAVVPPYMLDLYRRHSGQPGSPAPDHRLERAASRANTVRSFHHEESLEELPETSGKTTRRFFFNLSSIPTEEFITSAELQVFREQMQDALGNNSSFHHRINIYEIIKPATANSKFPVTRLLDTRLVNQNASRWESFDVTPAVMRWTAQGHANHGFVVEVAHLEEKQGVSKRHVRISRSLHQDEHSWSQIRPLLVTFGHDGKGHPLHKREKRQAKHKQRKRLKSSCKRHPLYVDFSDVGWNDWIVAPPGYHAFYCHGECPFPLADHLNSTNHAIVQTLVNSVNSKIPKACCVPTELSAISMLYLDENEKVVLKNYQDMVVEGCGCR
growth differentiation factor 5 (GDF5), wild type (human), sequence (P43026 28-501): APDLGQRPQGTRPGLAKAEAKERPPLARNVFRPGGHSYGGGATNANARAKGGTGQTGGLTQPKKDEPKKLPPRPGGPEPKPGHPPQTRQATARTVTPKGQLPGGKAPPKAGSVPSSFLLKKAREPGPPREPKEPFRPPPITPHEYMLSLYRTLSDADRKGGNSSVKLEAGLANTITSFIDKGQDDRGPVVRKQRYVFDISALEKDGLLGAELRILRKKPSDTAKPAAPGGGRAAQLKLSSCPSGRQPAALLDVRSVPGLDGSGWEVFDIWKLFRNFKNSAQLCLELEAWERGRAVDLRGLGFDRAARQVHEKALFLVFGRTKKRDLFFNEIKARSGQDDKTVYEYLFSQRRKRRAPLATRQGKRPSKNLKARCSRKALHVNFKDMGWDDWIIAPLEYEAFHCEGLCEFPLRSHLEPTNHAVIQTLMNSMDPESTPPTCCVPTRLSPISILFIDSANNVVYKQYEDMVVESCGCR
GDF5 variant Arg438Leu (human), sequence (P43026 28-501 R438L): as the sequence (P43026 28-501) above, with R411L counted along it
GDF5 variant Arg438Ala (human), sequence (P43026 28-501 R438A): as the sequence (P43026 28-501) above, with R411A counted along it
GDF5 variant Tyr487Lys/Gln489Asp, sequence (P43026 28-501 Y487K/Q489D): as the sequence (P43026 28-501) above, with Y460K, Q462D counted along it

Row | Kd [5] [nM] | koff [5] [s⁻¹] | kon [5] [M⁻¹ s⁻¹] | Kd [6] [nM] | koff [6] [s⁻¹] | kon [6] [M⁻¹ s⁻¹] | Kd [7] [nM] | koff [7] [s⁻¹] | kon [7] [M⁻¹ s⁻¹] | Binder | further results
1 |  |  |  |  |  |  |  |  |  | soluble mature RGMB (Gln49-Gly412) produced in insect cells (domain or fragment) QQPAQCRIQKCTTDFVSLTSHLNSAVDGFDSEFCKALRAYAGCTQRTSKACRGNLVYHSAVLGISDLMSQRNCSKDGPTSSTNPEVTHDPCNYHSHAGAREHRRGDQNPPSYLFCGLFGDPHLRTFKDNFQTCKVEGAWPLIDNNYLSVQVTNVPVVPGSSATATNKITIIFKAHHECTDQKVYQAVTDDLPAAFVDGTTSGGDSDAKSLRIVERESGHYVEMHARYIGTTVFVRQVGRYLTLAIRMPEDLAMSYEESQDLQLCVNGCPLSERIDDGQGQVSAILGHSLPRTSLVQAWPGYTLETANTQCHEKMPVKDIYFQSCVFDLLTTGDANFTAAAHSALEDVEALHPRKERWHIFPSSG | Fig. S3C: IC50 of soluble RGMB for inhibition of BMP2 (10 nM)-induced alkaline phosphatase expression in ATDC5 cells [1]: > 1500 nM; Fig. S3C: inhibitory constant Ki of soluble RGMB (Cheng-Prusoff, from EC50 and IC50) for BMP2-induced alkaline phosphatase expression in ATDC5 cells [1]: > 500 nM; Fig. S3G: IC50 of soluble RGMB for inhibition of BMP2 (10 nM)-induced SMAD signaling (BRE-Luc reporter) in C3H10T1/2 cells [1]: 41 nM; Fig. S3D: IC50 of soluble RGMB for inhibition of GDF5 (20 nM)-induced alkaline phosphatase expression in ATDC5 cells [2]: 166 nM; Fig. S3D: inhibitory constant Ki of soluble RGMB (from EC50 and IC50) for GDF5-induced alkaline phosphatase expression in ATDC5 cells [2]: 85 nM; Fig. S3H: IC50 of soluble RGMB for inhibition of GDF5 (10 nM)-induced SMAD signaling (BRE-Luc reporter) in C3H10T1/2 cells [2]: 47 nM; koff [3]: 0.011 s⁻¹; kon [3]: 5.3e+06 M⁻¹ s⁻¹; koff [4]: 0.0025 s⁻¹; kon [4]: 1.8e+06 M⁻¹ s⁻¹
2 | 1.5 | 0.0015 | 1e+06 | 1.1 | 0.0011 | 1e+06 | 3.7 | 0.0016 | 420000 | full-length extracellular domain of RGMB (Gln49-Gly412) from FreeStyle 293 cells (domain or fragment) QQPAQCRIQKCTTDFVSLTSHLNSAVDGFDSEFCKALRAYAGCTQRTSKACRGNLVYHSAVLGISDLMSQRNCSKDGPTSSTNPEVTHDPCNYHSHAGAREHRRGDQNPPSYLFCGLFGDPHLRTFKDNFQTCKVEGAWPLIDNNYLSVQVTNVPVVPGSSATATNKITIIFKAHHECTDQKVYQAVTDDLPAAFVDGTTSGGDSDAKSLRIVERESGHYVEMHARYIGTTVFVRQVGRYLTLAIRMPEDLAMSYEESQDLQLCVNGCPLSERIDDGQGQVSAILGHSLPRTSLVQAWPGYTLETANTQCHEKMPVKDIYFQSCVFDLLTTGDANFTAAAHSALEDVEALHPRKERWHIFPSSG | 
3 | 1.7 | 0.00045 | 270000 | 1.4 | 0.00042 | 300000 | 1.3 | 0.00052 | 420000 | full-length extracellular domain of RGMA (Cys48-Arg423) from FreeStyle 293 cells (domain or fragment) CKILKCNSEFWSATSGSHAPASDDTPEFCAALRSYALCTRRTARTCRGDLAYHSAVHGIEDLMSQHNCSKDGPTSQPRLRTLPPAGDSQERSDSPEICHYEKSFHKHSATPNYTHCGLFGDPHLRTFTDRFQTCKVQGAWPLIDNNYLNVQVTNTPVLPGSAATATSKLTIIFKNFQECVDQKVYQAEMDELPAAFVDGSKNGGDKHGANSLKITEKVSGQHVEIQAKYIGTTIVVRQVGRYLTFAVRMPEEVVNAVEDWDSQGLYLCLRGCPLNQQIDFQAFHTNAEGTGARRLAAASPAPTAPETFPYETAVAKCKEKLPVEDLYYQACVFDLLTTGDVNFTLAAYYALEDVKMLHSNKDKLHLYERTRDLPGR | 
4 |  |  |  |  |  |  |  |  |  | ActR2b extracellular domain (ActR2bECD) (receptor) SGRGEAETRECIYYNANWELERTNQSGLERCEGEQDKRLHCYASWRNSSGTIELVKKGCWLDDFNCYDRQECVATEENPQVYFCCCEGNFCNERFTHLPEAGGPEVTYEPPPTAPTLLT | stoichiometry N (ActR2b per GDF5 dimer (2:2:2 by chains)) [8]: 2
5 |  |  |  |  |  |  |  |  |  | murine activin type-2 receptor ActR2b, soluble ectodomain (residues Gly20 to Glu127) (receptor) GRGEAETRECIYYNANWELERTNQSGLERCEGEQDKRLHCYASWRNSSGTIELVKKGCWLDDFNCYDRQECVATEENPQVYFCCCEGNFCNERFTHLPEPGGPEVTYE | Kd [9]: 2700 nM
6 | 2.3 | 0.00026 | 160000 | 2.2 | 0.00041 | 190000 | 2.8 | 0.00064 | 240000 | full-length extracellular domain of RGMC (Gln36-Asp400) from FreeStyle 293 cells (domain or fragment) QCKILRCNAEYVSSTLSLRGGGSSGALRGGGGGGRGGGVGSGGLCRALRSYALCTRRTARTCRGDLAFHSAVHGIEDLMIQHNCSRQGPTAPPPPRGPALPGAGSGLPAPDPCDYEGRFSRLHGRPPGFLHCASFGDPHVRSFHHHFHTCRVQGAWPLLDNDFLFVQATSSPMALGANATATRKLTIIFKNMQECIDQKVYQAEVDNLPVAFEDGSINGGDRPGGSSLSIQTANPGNHVEIQAAYIGTTIIIRQTAGQLSFSIKVAEDVAMAFSAEQDLQLCVGGCPPSQRLSRSERNRRGAITIDTARRLCKEGLPVEDAYFHSCVFDVLISGDPNFTVAAQAALEDARAFLPDLEKLHLFPSD | 
